Patent US20140322233A1

Columns and labels:
[1] = target: T1, human guanylyl cyclase C (GCC), full length (human), P25092; experiment: whole cell binding of radiolabeled ST-toxin, T84 cells (endogenous GCC)
[2] = target: T1, human guanylyl cyclase C (GCC), full …; experiment: whole cell binding of radiolabeled ST-toxin, HT-29-GCC#2/#5 cells
[3] = target: human GCC, full length with myc tag (293-GCC#2 cells) (human), P25092; experiment: whole cell binding of radiolabeled ST-toxin, 293-GCC cells
Sequence of human GCC, full length with myc tag (293-GCC#2 cells) (human), P25092 (P25092 24-1073): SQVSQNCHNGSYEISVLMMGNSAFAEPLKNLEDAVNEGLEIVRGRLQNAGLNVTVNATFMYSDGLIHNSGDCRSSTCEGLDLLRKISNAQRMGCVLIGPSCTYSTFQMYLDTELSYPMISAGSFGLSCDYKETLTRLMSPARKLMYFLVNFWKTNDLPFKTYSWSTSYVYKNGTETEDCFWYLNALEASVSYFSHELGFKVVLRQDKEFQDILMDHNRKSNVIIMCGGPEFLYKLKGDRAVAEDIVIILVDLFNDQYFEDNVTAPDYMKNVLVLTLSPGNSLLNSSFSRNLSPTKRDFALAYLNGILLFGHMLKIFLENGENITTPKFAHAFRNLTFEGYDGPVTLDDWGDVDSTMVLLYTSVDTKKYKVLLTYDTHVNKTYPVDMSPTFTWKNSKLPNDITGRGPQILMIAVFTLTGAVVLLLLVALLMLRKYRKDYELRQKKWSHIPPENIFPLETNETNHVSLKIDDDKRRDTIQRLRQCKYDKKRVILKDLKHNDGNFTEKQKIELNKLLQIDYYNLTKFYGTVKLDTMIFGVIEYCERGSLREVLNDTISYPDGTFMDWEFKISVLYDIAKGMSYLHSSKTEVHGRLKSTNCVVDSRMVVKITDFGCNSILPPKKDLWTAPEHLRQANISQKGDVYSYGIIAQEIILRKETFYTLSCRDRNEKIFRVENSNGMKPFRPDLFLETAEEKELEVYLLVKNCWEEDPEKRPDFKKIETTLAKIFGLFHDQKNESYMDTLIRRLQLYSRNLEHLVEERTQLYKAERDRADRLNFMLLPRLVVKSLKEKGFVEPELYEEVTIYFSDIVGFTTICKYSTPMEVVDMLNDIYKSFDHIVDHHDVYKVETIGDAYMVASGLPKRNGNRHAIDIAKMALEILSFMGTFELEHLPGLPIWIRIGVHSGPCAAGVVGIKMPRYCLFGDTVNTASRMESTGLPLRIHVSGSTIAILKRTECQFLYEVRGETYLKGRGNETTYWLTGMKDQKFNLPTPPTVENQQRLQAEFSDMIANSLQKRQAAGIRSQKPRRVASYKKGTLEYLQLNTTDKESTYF

T1 sequence (P25092 24-1073 limits assumed): as the sequence (P25092 24-1073) above

B1: heat-stable enterotoxin (ST) peptide (peptide)
peptide: NTFYCCELCCNPACAGCY
modifications: not checked
Whole cell binding assay (receptor/cell) (receptor/cell) [1]: 300000 | Whole cell binding assay (receptor/cell) (receptor/cell) [2]: 100000 | Whole cell binding assay (receptor/cell) (receptor/cell) [3]: 600000
